Experimental data taken from patent publication US7144983.
pIC50: −log10 of the molar value.

What follows are substances tested against trkA + p75 receptors on rat PC12 pheochromocytoma cells (rat) (UniProt P35739) (assay: 125I-hNGF displacement, PC12 cells (trkA+p75), 4 C).
trkA + p75 receptors on rat PC12 pheochromocytoma cells (rat), sequence (P35739 33-799, chain 1 of 2): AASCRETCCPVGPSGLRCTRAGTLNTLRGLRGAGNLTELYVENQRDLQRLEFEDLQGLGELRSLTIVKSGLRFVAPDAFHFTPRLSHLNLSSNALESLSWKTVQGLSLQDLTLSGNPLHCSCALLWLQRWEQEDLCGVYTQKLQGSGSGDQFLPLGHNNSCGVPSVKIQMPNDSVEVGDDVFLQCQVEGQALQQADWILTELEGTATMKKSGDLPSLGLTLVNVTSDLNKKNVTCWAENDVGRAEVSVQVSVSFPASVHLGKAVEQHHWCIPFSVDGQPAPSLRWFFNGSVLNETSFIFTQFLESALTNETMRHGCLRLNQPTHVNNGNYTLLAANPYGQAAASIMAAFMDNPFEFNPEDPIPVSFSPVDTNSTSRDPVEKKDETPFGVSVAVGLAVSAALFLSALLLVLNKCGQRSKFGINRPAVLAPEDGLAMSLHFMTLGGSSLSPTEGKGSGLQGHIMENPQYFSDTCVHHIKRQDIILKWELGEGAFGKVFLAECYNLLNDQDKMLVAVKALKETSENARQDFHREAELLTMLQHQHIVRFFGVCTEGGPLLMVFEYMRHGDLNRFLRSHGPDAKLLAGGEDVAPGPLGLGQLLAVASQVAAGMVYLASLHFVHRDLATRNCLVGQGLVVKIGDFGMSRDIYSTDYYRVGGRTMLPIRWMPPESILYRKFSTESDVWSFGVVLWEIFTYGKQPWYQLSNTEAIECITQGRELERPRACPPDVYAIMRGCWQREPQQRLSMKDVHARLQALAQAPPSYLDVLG
trkA + p75 receptors on rat PC12 pheochromocytoma cells (rat), sequence (P07174 30-425, chain 2 of 2, further chain): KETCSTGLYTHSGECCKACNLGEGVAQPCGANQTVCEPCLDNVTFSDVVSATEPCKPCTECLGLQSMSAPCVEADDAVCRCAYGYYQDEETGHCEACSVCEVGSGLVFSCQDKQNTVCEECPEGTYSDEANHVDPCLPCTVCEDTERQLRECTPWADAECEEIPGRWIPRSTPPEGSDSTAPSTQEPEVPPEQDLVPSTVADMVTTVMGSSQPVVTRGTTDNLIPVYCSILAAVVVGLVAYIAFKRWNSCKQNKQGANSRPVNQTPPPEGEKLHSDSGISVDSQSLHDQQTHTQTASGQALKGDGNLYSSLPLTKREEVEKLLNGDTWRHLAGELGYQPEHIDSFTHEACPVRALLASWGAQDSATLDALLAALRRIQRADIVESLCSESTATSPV
In the case of “hNGF (1-118) (from UniProt P01138 122-239) (ligand)”, the pIC50 was 10.30.
In the case of “hNGF (6-118) (from UniProt P01138 127-239) (ligand)”, the pIC50 was 9.89.
For “hNGF (10-118) (from UniProt P01138 131-239) (ligand)”, the pIC50 was 8.39.
“hNGF Mut 1 (H4A) (from UniProt P01138 122-241) (ligand)” was tested, and the pIC50 was 9.74.
In the case of “hNGF Mut 2 (H4D) (from UniProt P01138 122-241) (ligand)”, the pIC50 was 9.37.
“hNGF Mut 3 (R9A) (from UniProt P01138 122-241) (ligand)” was tested, and the pIC50 was 9.74.
In the case of “hNGF Mut 4 (H4A, H8A, R9A) (from UniProt P01138 122-241) (ligand)”, the pIC50 was 9.41.
With “mNGF (1-118) (from UniProt P01139 122-239) (ligand)” the pIC50 was 10.22.
